Assay results: US10954305B2 (Immunomedics, Inc., priority 2016, dated 2021)

Tests used:
[1] = tested on: HCC1806 (Trop-2+); assay: dsDNA breaks, rH2AX flow cytometry; format: cell-based, human; settings: untreated baseline 168
Experimental: For drug activity testing, HCC1806 and HCC1395 TNBC cell lines cells were seeded in 6-well plates at 5×10^5 cells/well and held at 37° C. overnight. […] The signal intensity of rH2AX was measured by flow cytometry using a BD FACSCalibur (BD Biosciences, San Jose, Calif.).
The cells were then washed to remove unbound conjugate, and then incubated overnight at 37° C.

[2] = target: T1, recombinant mouse Trop-2 (Mus musculus, UniProt Q8BGV3); assay: Trop-2 ELISA; format: binding
T1 construct: purchased Sino Biological, Inc. 50922-MO8H
T1 sequence (Q8BGV3 25-317): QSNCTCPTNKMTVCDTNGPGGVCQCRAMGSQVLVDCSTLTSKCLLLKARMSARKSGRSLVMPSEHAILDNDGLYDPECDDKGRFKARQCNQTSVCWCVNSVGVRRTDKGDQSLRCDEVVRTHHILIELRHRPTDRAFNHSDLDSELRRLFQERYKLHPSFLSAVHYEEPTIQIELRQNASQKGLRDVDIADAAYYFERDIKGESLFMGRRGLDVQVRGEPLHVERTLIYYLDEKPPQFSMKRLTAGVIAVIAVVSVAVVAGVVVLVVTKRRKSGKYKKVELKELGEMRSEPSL
Experimental: (§1) Recombinant human Trop-2 with a His-tag (Sino Biological, Inc., Bejing, China; Cat #10428-H09H) and recombinant mouse Trop-2 with a His-Tag (Sino Biological, Inc., Cat #50922-MO8H) were plated onto Ni-NTA Hissorb strips (Qiagen GmbH Cat #35023) at 1 μg for 1 h at room temperature. The plate was washed four times with PBS-Tween (0.05%) wash buffer. Serial dilutions of hRS7 were made in 1% BSA-PBS dilution buffer to a test range of 0.1 ng/mL to 10 μg/mL. The plates were then incubated for 2 h at room temperature before being washed four times followed by the addition of a peroxidase conjugated secondary antibody (goat anti-human, Fc fragment specific; Jackson Immunoresearch Cat #109-036-098). After a 45-min incubation, the plate was washed and a substrate solution (o-phenylenediamine dihydrochloride (OPD); Sigma, Cat #P828) added to all the wells. Plates were incubated in the dark for 15 min before the reaction was stopped with 4N sulfuric acid. The plates were read at 450 nm on Biotek ELX808 plate reader. Data were analyzed and graphed using Prism GraphPad Software (v4.03) (Advanced Graphics Software, Inc.; Encinitas, Calif.).

[3] = target: T2, recombinant human Trop-2 (Homo sapiens, UniProt P09758); assay: Trop-2 ELISA; format: binding
T2 construct: purchased Sino Biological, Inc. 10428-H09H
T2 sequence (P09758 27-323): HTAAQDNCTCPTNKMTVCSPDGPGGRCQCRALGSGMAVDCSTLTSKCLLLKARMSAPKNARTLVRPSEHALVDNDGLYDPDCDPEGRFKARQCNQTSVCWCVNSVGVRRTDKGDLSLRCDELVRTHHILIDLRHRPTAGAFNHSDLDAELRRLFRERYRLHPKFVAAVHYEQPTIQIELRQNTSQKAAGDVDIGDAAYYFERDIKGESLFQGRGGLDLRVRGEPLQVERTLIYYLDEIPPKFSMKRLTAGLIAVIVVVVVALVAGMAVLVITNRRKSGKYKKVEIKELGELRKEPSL
Experimental: as §1

Row | Substance | Median fluorescence intensity (rH2AX) [1] | cross-reactivity [2] | Kd [3]
1 | IMMU-132 | 546 |  | 
2 | hRS7 IgG |  | no cross-reactivity with the murine Trop-2 | 0.3 nM
